Target: NSUN4 (residues 26–384) (human, UniProt Q96CB9 26-384)
Experiment: ITC

Sequence of NSUN4 (residues 26–384) (Q96CB9 26-384): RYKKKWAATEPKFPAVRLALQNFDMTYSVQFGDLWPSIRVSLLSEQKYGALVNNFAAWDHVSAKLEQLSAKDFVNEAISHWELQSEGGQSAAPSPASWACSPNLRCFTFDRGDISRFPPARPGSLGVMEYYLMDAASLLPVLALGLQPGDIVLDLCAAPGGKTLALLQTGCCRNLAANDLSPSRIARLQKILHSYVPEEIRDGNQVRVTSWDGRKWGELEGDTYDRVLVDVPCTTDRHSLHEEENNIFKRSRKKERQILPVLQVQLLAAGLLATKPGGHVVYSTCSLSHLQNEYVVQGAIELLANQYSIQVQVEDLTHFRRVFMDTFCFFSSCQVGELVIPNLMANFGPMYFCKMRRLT

Kd: 13.3 ± 0.4 nM
dH: -11 ± 0.22 kcal/mol
stoichiometry N: 1.08 ± 0.02
B1: MTERF4 (residues 66–332) (domain or fragment, human, UniProt Q7Z6M4 66-332, looked up)
chain: EPECRRNLVQCLLEKQGTPVVQGSLELERVMSSLLDMGFSNAHINELLSVRRGASLQQLLDIISEFILLGLNPEPVCVVLKKSPQLLKLPIMQMRKRSSYLQKLGLGEGKLKRVLYCCPEIFTMRQQDINDTVRLLKEKCLFTVQQVTKILHSCPSVLREDLGQLEYKFQYAYFRMGIKHPDIVKSEYLQYSLTKIKQRHIYLERLGRYQTPDKKGQTQIPNPLLKDILRVSEAEFLARTACTSVEEFQVFKKLLAREEEESESSTS
